The source of these data is patent US20250066503A1, “CELL INJURY INDUCING THERAPEUTIC DRUG FOR USE IN CANCER THERAPY” (CHUGAI SEIYAKU KABUSHIKI KAISHA, priority 2016, published 2025).

For data set [1] the following is noted: systemic administration; non-small-cell lung cancer patients; Phase I; cited from earlier work.
The subject of the next data set is PC-10 xenograft tumor. The data set is described as follows: In vivo drug efficacy, NOD scid/T cell-injected model, PC-10. Also noted: species or system NOD scid mice. To be noted: 1 mg/kg once through the tail vein, compared to the vehicle-administered group. On the procedure:
Methods called an NOD scid/T cell-injected model, a humanized NOG mouse model, and a human CD3εδγ gene-modified mouse model were used in the in vivo drug efficacy evaluation. Assay using an NOD scid/T cell-injected model was performed as follows. […] T cells expanded by culturing human PBMCs in vitro were injected into the NOD scid mice with confirmed tumor establishment. The mice were treated by administering bispecific antibody-38 and bispecific antibody-30, -31, -32, or -33. Assay using a humanized NOG mouse model was performed as follows. CD34-positive hematopoietic stem cells derived from umbilical cord blood were transplanted into NOG mice by tail vein injection. Human T cells are constantly supplied in the mice, which are called humanized NOG mice. The PC-10 cell line was transplanted into humanized NOG mice. The humanized NOG mice with confirmed establishment of PC-10 tumor were treated by administering antibody-38. Assay using a human CD3εδγ gene-modified mouse model was performed as follows. Cells of mouse-derived cell line forced to express human GPC3 were transplanted into a human CD3εδγ gene-modified mouse model, which had been prepared according to Reference Example 10. The human CD3εδγ gene-modified mice with confirmed tumor establishment were treated by administering antibody-38. […]

Data set [2] concerns NCI-H446 human cancer cell line. The data set is described as follows: Cytotoxic activity (cell proliferation inhibition rate, xCELLigence) with human PBMCs. The data set is classed as cell-based. The settings on record: human PBMCs as effector cells; NCI-H446 target cells; 72 hours. On the procedure:
Using a syringe preloaded with 100 μL of 1,000 units/mL heparin solution (Novo Heparin for injection, 5000 units, Novo Nordisk), 50 mL of peripheral blood was collected from each healthy volunteer (adult individual). This peripheral blood was diluted two-fold in PBS(−), divided into four aliquots, and added into a Leucosep tube for lymphocyte separation (Cat. No. 227290, Greiner Bio-One) that had been loaded with 15 mL of Ficoll-Paque PLUS and subjected to centrifugation in advance. This separation tube was centrifuged (at 2150 rpm for ten minutes at room temperature), and then the mononuclear cell fraction was collected. The cells in the mononuclear cell fraction were washed once with the Dulbecco's Modified Eagle's Medium containing 10% FBS (manufactured by SIGMA, hereinafter referred to as 10% FBS/D-MEM), and then prepared to have a cell density of 4×10^6 cells/mL using 10% FBS/D-MEM. The cell suspension prepared this way was used as the human PBMC solution in the experiment below.
Cytotoxic activity was assessed by the rate of cell proliferation inhibition using the xCELLigence Real-Time Cell Analyzer (Roche Diagnostics). […]
Cytotoxic activity was measured by the method described in Reference Example 1-3-2.
CDR and FR were determined according to the Kabat definition (Kabat numbering). […]

“Also recorded” adds a separate entry of the source.

Turning to catumaxomab, the maximum tolerable dose in data set [1] was 5 g/body.

B1: antibody-39: bispecific antibody; CD3-binding variable region SEQ ID NO: 433, GPC-binding SEQ ID NO: 434, common L chain SEQ ID NO: 435 (antibody)
heavy 1: QVQLVQSGAEVKKPGASVKVSCKASGYTFTDYEMHWIRQPPGQGLEWIGAIDPKTGDTAYSQKFKGRVTLTADKSTSTAYMELSSLTSEDTAVYYCTRFYSYTYWGQGTLVTVSS
heavy 2: EVQLVETGGSLVQPGKSLKLTCATSGFTFSNAWMHWVRQSPEKQLEWVAQIKAKSNNYATYYAESVKGRFTISRDDSKSNIYLQMNSLKEEDTAVYYCRYVHYGAYYGVDAWGQGTSVTVSS
light: DIVMTQSPLSLPVTPGEPASISCRSSQSLVHSNRNTYLHWYQQKPGQAPRLLIYKVSNRFSGVPDRFSGSGSGTDFTLKISRVEAEDVGVYYCGQGTQVPYTFGQGTKLEIK
modifications: An artificially generated sequence
Turning to B1, the anti-tumor effect result with PC-10 xenograft tumor is reported as “evident anti-tumor effect”.

B2: GPC3_ERY27_hCE115: humanized anti-human CD3ε chain and anti-human GPC3 bispecific antibody (SEQ ID NOs: 54, 55, and 56) (protein)
chain 1: QVQLVQSGAEVKKPGASVKVSCKASGYTFTDYEMHWIRQPPGQGLEWIGAIDPKTGDTAYSQKFKGRVTLTADKSTSTAYMELSSLTSEDTAVYYCTRFYSYTYWGQGTLVTVSSASTKGPSVFPLAPCSRSTSESTAALGCLVKDYFPEPVTVSWNSGALTSGVHTFPAVLQSSGLYSLSSVVTVPSSSLGTKTYTCNVDHKPSNTKVDKRVESKYGPPCPPCPAPEFRGGPKVFLFPPKPKDTLMISRTPEVTCVVVDVSQEDPEVQFNWYVDGVEVHNAKTKPREEQFASTYRVVSVLTVLHQDWLNGKEYKCKVSNKGLPSSIEKTISKAKGQPREPQVYTLPPSQKEMTKNQVSLTCLVKGFYPSDIAVEWESNGQPENNYKTTPPVLDSDGSFFLYSRLTVDKSRWQEGNVFSCSVMHEALHNRYTQKSLSLSLHHHHHHHH
chain 2: QVQLVESGGGVVQPGRSLRLSCAASGFTFSNAWMHWVRQAPGKGLEWVAQIKAKSNNYATYYAESVKGRFTISRDDSKNSLYLQMNSLKTEDTAVYYCRYVHYGAYYGVDAWGQGTTVTVSSASTKGPSVFPLAPCSRSTSESTAALGCLVKDYFPEPVTVSWNSGALTSGVHTFPAVLQSSGLYSLSSVVTVPSSSLGTKTYTCNVDHKPSNTKVDKRVESKYGPPCPPCPAPEFRGGPKVFLFPPKPKDTLMISRTPEVTCVVVDVSQEDPEVQFNWYVDGVEVHNAKTKPREEQFASTYRVVSVLTVLHQDWLNGKEYKCKVSNKGLPSSIEKTISKAKGQPREPQVYTLPPSQEEMTKNQVSLTCLVKGFYPSDIAVEWESNGQPENNYKTTPPVLDSDGSFFLYSRLTVDKSRWQEGNVFSCSVMHEALHNHYTQESLSLSLDYKDDDDK
chain 3: DIVMTQSPLSLPVTPGEPASISCRSSQSLVHSNRNTYLHWYQQKPGQAPRLLIYKVSNRFSGVPDRFSGSGSGTDFTLKISRVEAEDVGVYYCGQGTQVPYTFGQGTKLEIKRTVAAPSVFIFPPSDEQLKSGTASVVCLLNNFYPREAKVQWKVDNALQSGNSQESVTEQDSKDSTYSLSSTLTLSKADYEKHKVYACEVTHQGLSSPVTKSFNRGEC
modifications: An artificially generated sequence
With B2, in data set [2], the “cytotoxic activity (T-cell-dependent cellular cytotoxicity)” value is “reduction of the activity; also recorded: lower”.
